Laboratory results: publication PMC12207404, “Significance of the CTP-binding motif for the interactions of S. coelicolor ParB with DNA, chromosome segregation, and sporogenic hyphal growth” (Nucleic Acids Research, 2025)

Assays:
[1] = test system: ScParB (Streptomyces coelicolor); assay: BLI; conditions: no CTP, BLI: 100 mM Tris-HCl pH 8.0, 100 mM NaCl, 1 mM MgCl2, 0.005% Tween 20, 30 C, EMSA: 100 mM Tris-HCl pH 8.0, 100 mM NaCl, 10% glycerol, 1 mM DTT, 1 mM EDTA …
[2] = biological target: T1, ScParB (S. coelicolor ParB) (Streptomyces coelicolor, UniProt Q9RFM2); assay: TNP-CTP fluorescence enhancement at […] nm; assay type: binding; conditions: 1 μM protein, 5 μM TNP-CTP, no DNA, 1 mM MgCl2, pH 8.0, room temperature; labelled compound
T1 construct: full-length; N-terminal GST fusion from pGEX-6P-1_parB, GST removed with PreScission protease; expressed in E. coli BL21 pLysS; dimer
T1 sequence (Q9RFM2 entry or part of it): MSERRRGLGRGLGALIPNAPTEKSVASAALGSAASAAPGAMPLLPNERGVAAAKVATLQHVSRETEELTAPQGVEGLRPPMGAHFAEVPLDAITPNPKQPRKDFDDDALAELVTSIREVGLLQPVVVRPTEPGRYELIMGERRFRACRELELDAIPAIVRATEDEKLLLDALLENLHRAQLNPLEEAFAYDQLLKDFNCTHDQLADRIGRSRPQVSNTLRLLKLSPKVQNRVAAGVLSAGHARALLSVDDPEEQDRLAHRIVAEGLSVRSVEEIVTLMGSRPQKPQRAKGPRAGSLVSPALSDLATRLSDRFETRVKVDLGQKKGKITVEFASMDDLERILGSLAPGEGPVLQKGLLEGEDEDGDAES

[3] = biological target: the molecule itself; assay: cross-linking; glutaraldehyde (0.03%, 0.06% or 0.12%), 4 μM ScParB variant, 100 mM Tris-HCl pH 8.0, 100 mM NaCl, 1 mM MgCl2, 0.005% Tween 20, 30°C, 30 min; optionally 4 mM CTP or 4 μM 34-bp parS dsDNA; SDS-PAGE, Coomassie, percent of dimer and HMW complex of the lane's total signal
[4] = biological target: the molecule itself; assay: two-hybrid; bacterial two-hybrid (BACTH): pUT18C and pKT25 derivatives cotransformed into E. coli BTH101; blue colonies on LB agar with X-gal and 0.5 mM IPTG, 30°C, and β-galactosidase activity (Miller units)

300-bp parS, two-end biotin
Kd ([1]; Discussion prints 176): 167 nM

300-bp parS, one-end biotin
Kd [1]: 271 nM

Nc1ccn([C@@H]2O[C@H](COP(=O)(O)OP(=O)(O)OP(=O)(O)O)[C@H]3OC4(O[C@H]32)C([N+](=O)[O-])=CC(=[N+]([O-])O)C=C4[N+](=O)[O-])c(=O)n1 (some centres unmarked) [TNP-CTP, 2′,3′-O-trinitrophenyl-cytidine-5′-triphosphate]
relative fluorescence (RU) [2]: 1.16 ± 0.06 RU

B1: ScParB^R142A, purified recombinant (natural protein)
chain: MSERRRGLGRGLGALIPNAPTEKSVASAALGSAASAAPGAMPLLPNERGVAAAKVATLQHVSRETEELTAPQGVEGLRPPMGAHFAEVPLDAITPNPKQPRKDFDDDALAELVTSIREVGLLQPVVVRPTEPGRYELIMGEARFRACRELELDAIPAIVRATEDEKLLLDALLENLHRAQLNPLEEAFAYDQLLKDFNCTHDQLADRIGRSRPQVSNTLRLLKLSPKVQNRVAAGVLSAGHARALLSVDDPEEQDRLAHRIVAEGLSVRSVEEIVTLMGSRPQKPQRAKGPRAGSLVSPALSDLATRLSDRFETRVKVDLGQKKGKITVEFASMDDLERILGSLAPGEGPVLQKGLLEGEDEDGDAES
notes: source: E. coli BL21 (DE) pLysS, purified (Glutathione Sepharose 4B, cleaved with PreScission protease); not shown: GST, N-terminal, cleaved
fold enhancement of dimerization against wild-type ScParB [3]: ≤ 3 fold

B2: ScParB^R142A, bacterial two-hybrid fusion (natural protein)
chain: B1 chain
notes: also called R142A-substituted variant; source: bacterial two-hybrid fusion (pUT18C and pKT25 derivatives), in E. coli BTH101
fold enhancement of dimerization against wild-type ScParB [4]: ≤ 3 fold
